Consider seven molecules from article doi:10.1101/2024.02.21.581378 (bioRxiv, 2024).

Experiment [1] addresses macaque TMPRSS2 N469Y on transfected 293T cells (macaque).
For experiment [2], the target named is T1, TMPRSS2^S441A (human TMPRSS2 residues 107-492, zymogen, uncleaved) (human, UniProt O15393 107-492, S441A). Put plainly: crystal structure.
Experiment [3] addresses cleaved soluble TMPRSS2^S441A (TMPRSS2^S441A-Cl) (human, UniProt O15393 107-255; O15393 256-492, S441A). The experiment is described as follows: BLI.
Experiment [4] addresses T1, TMPRSS2^S441A (human TMPRSS2 residues …). Put plainly: BLI.

cleaved soluble TMPRSS2^S441A (TMPRSS2^S441A-Cl), sequence (O15393 107-255, chain 1 of 2): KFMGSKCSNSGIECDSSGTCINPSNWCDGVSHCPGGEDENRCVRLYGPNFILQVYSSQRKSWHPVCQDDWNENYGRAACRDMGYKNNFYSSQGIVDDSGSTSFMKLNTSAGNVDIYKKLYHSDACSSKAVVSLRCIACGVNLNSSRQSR
cleaved soluble TMPRSS2^S441A (TMPRSS2^S441A-Cl), sequence (O15393 256-492 S441A, chain 2 of 2): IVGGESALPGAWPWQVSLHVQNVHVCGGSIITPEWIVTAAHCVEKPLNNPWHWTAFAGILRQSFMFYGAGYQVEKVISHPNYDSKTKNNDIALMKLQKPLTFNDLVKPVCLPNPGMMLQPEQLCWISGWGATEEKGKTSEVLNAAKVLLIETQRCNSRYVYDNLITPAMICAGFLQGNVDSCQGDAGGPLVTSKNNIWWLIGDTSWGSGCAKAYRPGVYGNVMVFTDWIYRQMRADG
T1 sequence (O15393 107-492 S441A): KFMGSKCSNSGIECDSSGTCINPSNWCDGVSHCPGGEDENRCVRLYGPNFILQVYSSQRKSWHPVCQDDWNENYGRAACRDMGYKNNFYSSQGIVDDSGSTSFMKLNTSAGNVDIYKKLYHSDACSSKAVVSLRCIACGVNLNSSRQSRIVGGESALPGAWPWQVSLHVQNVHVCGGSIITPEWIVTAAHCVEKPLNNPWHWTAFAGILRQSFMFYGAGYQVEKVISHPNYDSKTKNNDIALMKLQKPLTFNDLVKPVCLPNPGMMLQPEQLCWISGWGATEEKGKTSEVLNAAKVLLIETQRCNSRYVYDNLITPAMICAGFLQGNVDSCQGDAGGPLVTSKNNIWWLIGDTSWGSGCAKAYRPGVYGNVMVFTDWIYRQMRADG

Turning to “soluble biotinylated HKU1B spike (from UniProt Q0ZME7) (natural protein)”, in experiment [1], the entry of HKU1B pseudoviruses, fold increase against wild-type macaque TMPRSS2 is 10 fold.

B1: HKU1B RBD and subdomain-1 (RBD-SD1, residues 307-675 of the spike protein) (domain or fragment)
chain: SGFTVKPVATVYRRIPNLPDCDIDNWLNNVSVPSPLNWERRIFSNCNFNLSTLLRLVHVDSFSCNNLDKSKIFGSCFNSITVDKFAIPNRRRDDLQLGSSGFLQSSNYKIDISSSSCQLYYSLPLVNVTINNFNPSSWNRRYGFGSFNLSSYDVVYSDHCFSVNSDFCPCADPSVVNSCAKSKPPSAICPAGTKYRHCDLDTTLYVKNWCRCSCLPDPISTYSPNTCPQKKVVVGIGEHCPGLGINEEKCGTQLNHSSCFCSPDAFLGWSFDSCISNNRCNIFSNFIFNGINSGTTCSNDLLYSNTEISTGVCVNYDLYGITGQGIFKEVSAAYYNNWQNLLYDSNGNIIGFKDFLTNKTYTILPCYSG
As for B1, the binding result in experiment [2] is “binds”.

B2: HKU1B RBD (residues 330-614 of the spike protein), wild type (domain or fragment)
chain: DNWLNNVSVPSPLNWERRIFSNCNFNLSTLLRLVHVDSFSCNNLDKSKIFGSCFNSITVDKFAIPNRRRDDLQLGSSGFLQSSNYKIDISSSSCQLYYSLPLVNVTINNFNPSSWNRRYGFGSFNLSSYDVVYSDHCFSVNSDFCPCADPSVVNSCAKSKPPSAICPAGTKYRHCDLDTTLYVKNWCRCSCLPDPISTYSPNTCPQKKVVVGIGEHCPGLGINEEKCGTQLNHSSCFCSPDAFLGWSFDSCISNNRCNIFSNFIFNGINSGTTCSNDLLYSNTEI
As a reminder, the Kd is a measure of binding affinity in units of concentration. A high value points to a looser complex. For B2, the dissociation constant (Kd) in experiment [3] turned out to be 30 nM. This counts as double-digit nanomolar.

B3: HKU1B RBD (residues 330-614) K487A (domain or fragment)
chain: DNWLNNVSVPSPLNWERRIFSNCNFNLSTLLRLVHVDSFSCNNLDKSKIFGSCFNSITVDKFAIPNRRRDDLQLGSSGFLQSSNYKIDISSSSCQLYYSLPLVNVTINNFNPSSWNRRYGFGSFNLSSYDVVYSDHCFSVNSDFCPCADPSVVNSCAASKPPSAICPAGTKYRHCDLDTTLYVKNWCRCSCLPDPISTYSPNTCPQKKVVVGIGEHCPGLGINEEKCGTQLNHSSCFCSPDAFLGWSFDSCISNNRCNIFSNFIFNGINSGTTCSNDLLYSNTEI
With B3, the binding result in experiment [3] and in experiment [4] was “binds” throughout.

B4: HKU1B RBD (residues 330-614) S529A (domain or fragment)
chain: DNWLNNVSVPSPLNWERRIFSNCNFNLSTLLRLVHVDSFSCNNLDKSKIFGSCFNSITVDKFAIPNRRRDDLQLGSSGFLQSSNYKIDISSSSCQLYYSLPLVNVTINNFNPSSWNRRYGFGSFNLSSYDVVYSDHCFSVNSDFCPCADPSVVNSCAKSKPPSAICPAGTKYRHCDLDTTLYVKNWCRCSCLPDPISTYAPNTCPQKKVVVGIGEHCPGLGINEEKCGTQLNHSSCFCSPDAFLGWSFDSCISNNRCNIFSNFIFNGINSGTTCSNDLLYSNTEI
For B4, in experiment [3], the binding result is given as “binds”.

B5: HKU1B RBD (residues 330-614) Y528A (domain or fragment)
chain: DNWLNNVSVPSPLNWERRIFSNCNFNLSTLLRLVHVDSFSCNNLDKSKIFGSCFNSITVDKFAIPNRRRDDLQLGSSGFLQSSNYKIDISSSSCQLYYSLPLVNVTINNFNPSSWNRRYGFGSFNLSSYDVVYSDHCFSVNSDFCPCADPSVVNSCAKSKPPSAICPAGTKYRHCDLDTTLYVKNWCRCSCLPDPISTASPNTCPQKKVVVGIGEHCPGLGINEEKCGTQLNHSSCFCSPDAFLGWSFDSCISNNRCNIFSNFIFNGINSGTTCSNDLLYSNTEI
Take B5: the binding result in experiment [3] and in experiment [4] was “binds” in each case.

B6: HKU1B RBD (residues 330-614) L510R (domain or fragment)
chain: DNWLNNVSVPSPLNWERRIFSNCNFNLSTLLRLVHVDSFSCNNLDKSKIFGSCFNSITVDKFAIPNRRRDDLQLGSSGFLQSSNYKIDISSSSCQLYYSLPLVNVTINNFNPSSWNRRYGFGSFNLSSYDVVYSDHCFSVNSDFCPCADPSVVNSCAKSKPPSAICPAGTKYRHCDLDTTRYVKNWCRCSCLPDPISTYSPNTCPQKKVVVGIGEHCPGLGINEEKCGTQLNHSSCFCSPDAFLGWSFDSCISNNRCNIFSNFIFNGINSGTTCSNDLLYSNTEI
Regarding B6, the binding result in experiment [3] and in experiment [4] was “binds” in each case.
